Reference: patent US20220017616A1 (Amgen, published 2022)

B1: 11E4 (antibody, V domains shown)
VH: QVQLQESGPGLVKPSQTLSLTCTVSGGSISSGGYYWSWIRQHPGKGLEWIGYIYYSGSTSYNPSLKSRVTISVDTSKNQFSLKLSSVTAADTAVYYCARDLDYDILTGYPRWDYGMDVWGQGTTVTVSS
VL: EIVMTQSPATLSVSPGERATLSCRASQSVSNNLAWYQQKPGQAPRLLIYSESTRATGIPDRFSGSGSGTEFTLTISSLQSEDFAVYYCQQHNNWPRTFGQGTKVEIKR
notes: Fully human XenoMouse antibody, tested as hybridoma supernatant
B2: 1E1 (antibody, V domains shown)
VH: QVQLVQSGAEVKKPGASVKVSCQASGYTFTDYYIYWVRQAPGQGLEWMGWINPNSGGTNYAQKFQGRVTMTRDTSISTAYIELSRLRSDDTAVYYCAREDNFNGMDVWGQGTTVTVSS
VL: DIQMTQSPSSLSASVGDRVTITCRASQGIRNDLGWYQQKPGKAPKRLIYAASSLQSGVPSRFSGSGSGTEFTLTISSLQPEDFATYYCLQLNSYPLTFGGGTKVEIKR
notes: Fully human XenoMouse antibody, tested as hybridoma supernatant or purified mAb; also called 18C10
B3: 29E10 (antibody, V domains shown)
VH: EVQLVESGGGLVQPGGSLRLSCAASGFTFRNYDMHWVRQVPGKGLEWVSDIGNSGETYYLGSVKGRFTISRENAKNSLYLQMNSLRAGDTAVYYCVREEFGYGMDVWGQGTTVTVSS
VL: DIQMTQSPSSLSASVGDRVTITCRASQGIRNDLGWYQQKPGKAPKRLIYAASSLQSGVPSRFSGSGSGTEFTLTISSLQPEDFATYYCLQHNSYPLTFGGGTKVEIKR
notes: as for B1
B4: 24F1 (antibody, V domains shown)
VH: EVQLVESGGGLVQPGGSLRLSCAASGFTFSRDDMHWVRQATGKGLEWVAGIDNAGDTYYPGSVKGRFTISRENAKNSLYLQMNSLRAGDTAIYYCAREGQWPYGMDVWGQGTTVTVSS
VL: DIQMTQSPSSLSASVGDRVTITCRASQGIRNDLGWYQQKPGKAPKRLIYSASSLQSGVSSRFSGSGSGTEFTLTISSLQPEDFATYYCLQSNSYPLTFGGGTKVEIKR
notes: as for B1
B5: 58A7 (antibody, V domains shown)
VH: QVQLQESGPGLVKPSQTLSLTCTVSGGSISSGGYYWNWIRQHPGKGLEWIGYIYYSGSTFYNPSLKSRVIISVDTSKNQFSLKLSSVTAADTAVYYCARAPRYNWNYGWFDPWGQGTLVTVSS
VL: EIVLTQSPGTLSLSPGERATLSCRASQNVSSTYLAWYQQKPGQAPRLLFYGASSRATGIPDRFSRSGSGTDFTLTISRLEPEDFAVYYCQQYDVSPWTFGQGTKVEIK
notes: Tested as hybridoma supernatant or purified mAb; also called 48B7
B6: 39D2 (antibody, V domains shown)
VH: QVQLVQSGAEVKKPGASVKVSCKASGYTFTGYYIHWVRQAPGQGLEWMGWISPTSGATGYAQNFQGRVTMTRDTSITTAYMELSRLRSDDTAVYYCARDSNSVLYYYGMDVWGQGTTVTVSS
VL: DIEMTQAPSSLSASVGDRVTITCRASQTIRRYLNWYQQKPGKAPKLLIYAASSLQNGVPSRFSGSVSGTDFTLTISSLQPEDFATYYCQQSYSTPLTFGGGTKVGIRR
notes: Fully human XenoMouse antibody, tested as hybridoma supernatant or purified mAb
B7: 27G12 (antibody, V domains shown)
VH: QVQLVQSGGEVKKPGASVKVSCKASGFTFTSYDINWVRQATGQGLEWMGWMNHYSGDSDYAQKLQGRVIITRNTSITTAYMELSSLRSEDTAVYYCGRERFPFGMDVWGQGTTVTVSS
VL: DIQMTHSPSSLSASIGDRVTITCRASQGIRNELGWYQKKPGKAPKRLIYSASSLQSGVPSRFSGSGSGTEFTLTISSLQPEDFATYYCLQHNTYPLTFGGGTKVEIK
notes: as for B1
B8: 55G7 (antibody, V domains shown)
VH: QVQLVESGGGVVQPGRSLRLSCAASGFTFSSYGMHWVRQAPGKGLEWVALIWFDESNIYYADSVKGRFTISRDNSKNTLYLQMNSLRAEDTAVYFCARGYDLLTGYYNFDFWGLGTLVTVSA
VL: QAGLTQPPSVSKGLRQTATLTCTGNTNNVGNRGAAWLQQHQGHPPKLLSYRNNNRPSGISERLSASRSGNTASLTITGLQPEDEADYYCSAWDSSLSAWVFGGGTKLTVLG
notes: as for B6
B9: 4G10 (antibody, V domains shown)
VH: QVQLQESGPGLVNPSQTLSLTCIVSGGSIRSGDYYWSWIRQHPGKGLEWIGYIYYSGGTYYNPSLKSRVIISVDTTKNQFSLKLSSMTAADTAVYYCARGSIAARSGYFYFSGLDVWGQGPTVTVSS
VL: EIVLTQTPLSLSVTPGQPASISCKSSQSLLPSDGKTYLSWYLQKPGLPPQVLIYEVSNRFSGVPDRFSGSGSGTDFTLKISRVEAEDVGVYYCMQSIQLPLTFGGGTKVEIKR
notes: as for B6
B10: 66H9 (antibody, V domains shown)
VH: QVQLQESGPGLVKPSQTLSLTCTVSGGSISSVYFYWNWIRQHPGKGLEWIGYIYYSGGTYYNPSLRSRVTISVDTSKNQFSLKLNSVTAADTAVYYCARGSIAAGGGYFYYNDMDVWGQGTTVTVSS
VL: EIVLTQSPDFQSVTPKEKVAITCRASQSIGSSLHWYQQKPDQSPKPLIKYVSQSFSGVPSRFSGSGSGTDFTLTINSLEAEDAATYYCHQSSSLPLTFGGGTKVEIKR
notes: as for B6
B11: 31B3 (antibody, V domains shown)
VH: QVQLVESGGGVVQPGRSLRLSCAASGFTFSYYGMHWVRQAPGKGLEWVALISYDGNNKYYVDSVRGRFTISRDNSKNTLSLQMNSLRAEDTAVYYCAREIFGESYYYGMDVWGQGTTVTVSS
VL: EIVMTQSPATLSVSPGERATLSCRASQSISRNLAWYQQKPGQAPRLLIYGASIRATVIPARFSGSGSGTEFTLTISSLQSEDFAIYYCQQYNNWMCSFGQGTKLEIK
notes: as for B1

How the values were obtained:
[1] = target: T1, biotinylated human CD112R-Fc (human, UniProt Q6DKI7 41-171, limits assumed, biotinylated); assay: flow cytometry on beads, supernatant at 5 µg/mL, competitor Alexa 647 CD112-huFc at 370 ng/mL
T1 construct: also called CD112R receptor (on streptavidin beads)
T1 sequence: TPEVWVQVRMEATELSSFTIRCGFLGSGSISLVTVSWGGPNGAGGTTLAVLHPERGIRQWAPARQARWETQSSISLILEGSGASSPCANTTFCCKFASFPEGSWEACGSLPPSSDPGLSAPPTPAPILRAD
Protocol: Biotinylated human CD112R-Fc was captured on Streptavidin polystyrene beads (Spherotech, Cat. No. SVP-60-5) in FACS buffer and incubated for 30 minutes at room temperature. Beads were washed twice with FACS buffer, centrifuged to pellet the beads, supernatant removed and resuspended in FACS buffer to remove unbound protein. Biotinylated human CD112R coated beads were added to a 96-well plate. Hybridoma supernatant samples were added such that 5 μg/mL final, beads were resuspended and incubated for 1 hour at room temperature. […] Beads were washed once with FACS buffer, centrifuged to pellet the beads, supernatant removed and resuspended in FACS buffer to remove unbound ligand. Samples were then resuspended in FACS buffer and read on BD Accuri™ Flow Cytometer with an Intellicyt HyperCyt autosampler.

[2] = target: T2, cynomolgus monkey CD112R (cynomolgus monkey); assay: flow cytometry, titration on activated cyno PBMCs
T2 construct: also called cyno CD112R
T2 chain: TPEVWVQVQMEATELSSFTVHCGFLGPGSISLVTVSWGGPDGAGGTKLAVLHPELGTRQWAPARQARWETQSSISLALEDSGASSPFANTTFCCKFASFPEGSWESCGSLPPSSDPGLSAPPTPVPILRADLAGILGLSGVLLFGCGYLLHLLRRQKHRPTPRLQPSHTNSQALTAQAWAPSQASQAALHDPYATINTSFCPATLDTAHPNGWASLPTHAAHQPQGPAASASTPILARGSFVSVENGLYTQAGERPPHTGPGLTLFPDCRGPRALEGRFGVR
Protocol: (§1) Briefly, cultured human T cells and cyno PBMCs were incubated with lead panel starting at 3 μg/mL for human or 5 μg/mL for cyno and titrated 1 in 3 for the lowest concentration of 0.001 μg/mL for human and 0.002 μg/mL for cyno. […] For analysis, FCS Express was used to obtain Geo Means and Screener was used to determine fold over Isotype control, titration curves and EC50 values.

[3] = target: T3, human CD112R (human, UniProt Q6DKI7 41-326); assay: flow cytometry, titration on activated primary human T cells
T3 construct: also called huCD112R; PVRIG
T3 sequence: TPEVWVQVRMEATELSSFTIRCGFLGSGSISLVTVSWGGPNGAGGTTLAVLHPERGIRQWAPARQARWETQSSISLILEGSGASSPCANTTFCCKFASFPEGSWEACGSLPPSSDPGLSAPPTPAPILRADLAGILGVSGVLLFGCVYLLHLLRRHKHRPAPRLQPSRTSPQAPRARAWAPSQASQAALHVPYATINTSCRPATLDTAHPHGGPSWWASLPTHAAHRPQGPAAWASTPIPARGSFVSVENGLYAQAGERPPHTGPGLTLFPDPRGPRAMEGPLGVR
Protocol: as §1

[4] = target: T4, human TIGIT (human, UniProt Q495A1 22-244); assay: flow cytometry, 1 µg/mL on activated primary human T cells, fold over isotype control
T4 construct: Cell-surface form; also called huTIGIT
T4 sequence: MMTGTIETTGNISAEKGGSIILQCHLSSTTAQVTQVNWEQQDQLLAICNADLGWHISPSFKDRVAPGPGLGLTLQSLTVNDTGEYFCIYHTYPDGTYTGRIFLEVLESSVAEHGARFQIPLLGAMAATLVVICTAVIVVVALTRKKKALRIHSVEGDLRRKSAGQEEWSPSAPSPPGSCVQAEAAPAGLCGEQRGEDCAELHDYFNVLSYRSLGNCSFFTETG
Protocol: (§2) The binding of hybridoma supernatants to TIGIT expressed by primary human and cynomolgus monkey cells were tested by flow cytometry. For human primary cell binding assay, purified human T cells (Biological Specialty Corp.) were thawed and suspended at a concentration of 2.5×10⁶ cells/mL. […] After 72 hours, cells were removed, washed and suspended at a concentration of 0.5×10⁶ cells/mL with 10 ng/mL of IL-2 (Pepro Tech). Cells were then incubated for another 48 to 72 hours at 37° C./5% CO₂. For cynomolgus primary cell binding assay, cynomolgus PBMCs (SNBL) were thawed and suspended in a concentration between 4×10⁶ and 5×10⁶ cells/mL. […] After 72 hours, cells were removed, washed and suspended at a concentration of 0.5×10E6 cells/mL with 20 ng/mL of IL-2 (Pepro Tech). Cells were then incubated for another 48 to 72 hours at 37° C./5% CO₂. After the final incubation, cells were prepared for flow cytometry by incubation with normalized hybridoma supernatants, positive control antibodies and isotype control antibodies at 1 μg/mL final concentration. […] Cells were then run on BD FACSCanto II flow cytometer to detect anti-TIGIT antibody binding.

[5] = target: T4, human TIGIT; assay: flow cytometry on CHO-S cells expressing human TIGIT, competitor huCD155-Fc-Alexa 647, at 1.7 µg/mL
Protocol: (§3) TIGIT-binding hybridoma supernatants were then tested for their ability to block TIGIT from binding ligand. […] The 7-AAD cell viability stain was then added and the cells incubated for a further 15 minutes at 4° C., washed twice and resuspended in FACS buffer. Samples were analyzed using a BD Accuri™ Flow Cytometer and an Intellicyt HyperCyt autoSampler.

[6] = target: T5, cynoTIGIT (PL40461) (cynomolgus monkey); assay: Octet, antibody on anti-huIgG Fc capture tips, cynoTIGIT as analyte
T5 construct: Soluble protein; also called Cyno TIGIT (Octet analyte)
Protocol: (§4) In the case of cynoTIGIT, association was monitored for 5 min and dissociation for 5 min. […] The limit of detection of dissociation is 4e-5 based on a minimum of 5% dissociation over 20 minutes.

[7] = target: T6, cynomolgus TIGIT (cynomolgus monkey); assay: flow cytometry, 1 µg/mL on activated primary cyno PBMCs, fold over isotype control
T6 construct: Cell-surface form; also called cyno TIGIT
Protocol: as §2

[8] = target: T4, human TIGIT; assay: cell-based or functional assay
[9] = target: T4, human TIGIT; assay: flow cytometry on CHO-S cells expressing human TIGIT, competitor CD112-Fc-Alexa 647, at 1 ug/mL
Protocol: as §3

[10] = target: T7, huTIGIT (PL44403) (human, UniProt Q495A1 22-141); assay: Octet, antibody on anti-huIgG Fc capture tips, huTIGIT as analyte
T7 construct: Soluble protein; also called Human TIGIT (Octet analyte, mono-Fc tag)
T7 sequence: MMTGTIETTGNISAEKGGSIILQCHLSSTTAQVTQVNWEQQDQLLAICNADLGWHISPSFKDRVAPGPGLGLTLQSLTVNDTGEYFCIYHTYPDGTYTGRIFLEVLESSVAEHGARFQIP
Protocol: as §4

[11] = target: T4, human TIGIT; assay: cell-based or functional assay; remark: listed apart in the source

T6 sequence (chain, as listed by the source): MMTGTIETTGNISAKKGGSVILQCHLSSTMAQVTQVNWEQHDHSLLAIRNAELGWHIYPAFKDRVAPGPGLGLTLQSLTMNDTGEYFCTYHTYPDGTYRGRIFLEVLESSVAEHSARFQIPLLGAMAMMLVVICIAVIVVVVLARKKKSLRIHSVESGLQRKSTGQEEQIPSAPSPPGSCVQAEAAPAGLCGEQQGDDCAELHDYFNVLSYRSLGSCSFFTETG
T5 sequence (chain, as listed by the source limits assumed): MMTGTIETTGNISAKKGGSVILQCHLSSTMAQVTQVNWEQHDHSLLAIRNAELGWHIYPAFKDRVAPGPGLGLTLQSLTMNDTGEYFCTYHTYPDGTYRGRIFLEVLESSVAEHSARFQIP

Binder	% of CD112 ligand prevented from binding [1] [%]	EC50 [2] [µg/mL]	EC50 [3] [µg/mL]	FACS Geomean Fold [4] [fold]	% inhibition [5] [%]	Kd [6] [nM]	FACS Geomean Fold [7] [fold]	Potency [nM], Jurkat human TIGIT/IL-2-luciferase RGA, n = 1 [8] [nM]	Potency [nM], Jurkat human TIGIT/IL-2-luciferase RGA, n = 2 [8] [nM]	% inhibition [9] [%]	Kd [10] [nM]	activity in the primary CD8 memory T-cell assay (IFN-γ release, CHO-K1-CD155+ cells) [11] [pM]
B1	≥ 90	–	–	–	–	–	–	–	–	–	–	–
B2	≥ 90	0.0087	0.02	–	–	–	–	–	–	–	–	–
B3	≥ 90	0.0322	0.033	–	–	–	–	–	–	–	–	–
B4	≥ 90	0.0334	0.034	–	–	–	–	–	–	–	–	–
B5	–	–	–	4.5	99	38	7.2	7.9	2.9	88	< 0.1	–
B6	–	–	–	13.7	100	–	–	2	2.8	100	< 0.1	380
B7	≥ 90	0.174	0.089	–	–	–	–	–	–	–	–	–
B8	–	–	–	4.5	99	17	12.3	4.4	14.4	86	< 0.1	–
B9	–	–	–	13.5	100	–	–	6.7	15	91	< 0.2	–
B10	–	–	–	4.1	98	18	4	3.4	5.8	85	< 0.1	–
B11	≥ 90	0.898	0.127	–	–	–	–	–	–	–	–	–
